B1: Protein S100-G, residues 1 to 79; numbered along this chain, P02633 (parent)
chain: MSAKKSPEELKGIFEKYAAKEGDPNQLSKEELKLLLQTEFPSLLKGPSTLDELFEELDKNGDGEVSFEEFQVLVKKISQ

Variants of: B1
Assay: abundance fitness (aPCA) (normalised: wild type 0, dead -1); higher = more abundant; growth selection in yeast, the domain comes from the species named
Conditions: Bos taurus

Abundance fitness, by site and new letter:
K29: C 0.002; E -0.14; F 0.017; N 0.07; L -0.008; I 0.056; G -0.078; D -0.007; H 0.06; M -0.057; A 0.025
P24: C 0.029; I 0.024; V -0.009; S 0.06; G -0.031; R -0.007; L -0.113; K 0.046; E -0.061; M -0.066; W -0.219; Y -0.075; D -0.125; Q 0.019; H -0.031; F -0.197; A -0.093
L27: V -0.02; W -0.936; M -0.054; P -0.846; R -0.673; S -0.611; E -1.04; F -0.48; H -0.751; T -0.335; D -0.855; Y -0.764; A -0.137; Q -0.839; K -0.844; G -0.786; N -0.681; C 0.006; I 0.105
G22: R -0.013; F -0.431; I -0.291; M -0.19; K -0.037; Q -0.231; P -0.19; E -0.17; D -0.167; H -0.103; T -0.22; S -0.114; V -0.29; W -0.547; Y -0.204; L -0.319; C -0.264; N -0.147
D23: N -0.013; E -0.053; R -0.043; L -0.034; M -0.104; A -0.009; K -0.157; G -0.091; T 0.005; Y -0.081; F -0.079; P -0.139; C -0.064; H -0.074; Q -0.046; W -0.254; S -0.036; V -0.065
N25: H 0.02; L 0.081; W -0.303; G -0.021; M -0.083; I 0.024; Q -0.079; R -0.069; K -0.059; F 0.027; P -0.077; T -0.006; A 0.014; Y -0.067; V -0.066; E -0.012; D -0.052; C -0.014; S -0.027
K20: V -0.077; I -0.098; N -0.012; L -0.067; W -0.181; M 0.053; S -0.088; Y -0.112; G -0.01; F -0.159; Q 0.04; E -0.119; R 0.012
E21: C 0.011; P -0.35; Y -0.058; H -0.014; S -0.085; N 0.039; W -0.236; T -0.082; Q -0.031; I -0.027; V -0.057; D 0.074; F 0.085; G -0.034; R -0.104; A 0.003
S28: H -0.041; L -0.208; E -0.05; Q -0.008; V -0.156; T -0.083; W -0.465; M -0.218; D 0.037; R -0.065; C -0.07; N -0.049; I -0.282; K -0.048; P -0.033; F -0.425; A 0; Y -0.277
Q26: C -0.082; V -0.081; N -0.048; S 0.042; M 0.002; K -0.05; F -0.043; H -0.075; I 0.003; Y 0.021; W 0.037; R 0.054; E 0.012; A -0.062; P -0.523; D -0.155; L 0.006; G -0.031

— the Human Domainome abundance scans (Beltran et al. 2025)
